Source: IntAct's records for PubMed 27978489

B1: T-cell immunoreceptor with Ig and ITIM domains (Homo sapiens), Q495A1 (parent)
chain: MRWCLLLIWAQGLRQAPLASGMMTGTIETTGNISAEKGGSIILQCHLSSTTAQVTQVNWEQQDQLLAICNADLGWHISPSFKDRVAPGPGLGLTLQSLTVNDTGEYFCIYHTYPDGTYTGRIFLEVLESSVAEHGARFQIPLLGAMAATLVVICTAVIVVVALTRKKKALRIHSVEGDLRRKSAGQEEWSPSAPSPPGSCVQAEAAPAGLCGEQRGEDCAELHDYFNVLSYRSLGNCSFFTETG

Variants of: B1
Details: with nect2_human NECTIN2, Q92692
Sequence of nect2_human NECTIN2, Q92692 (Q92692 whole entry): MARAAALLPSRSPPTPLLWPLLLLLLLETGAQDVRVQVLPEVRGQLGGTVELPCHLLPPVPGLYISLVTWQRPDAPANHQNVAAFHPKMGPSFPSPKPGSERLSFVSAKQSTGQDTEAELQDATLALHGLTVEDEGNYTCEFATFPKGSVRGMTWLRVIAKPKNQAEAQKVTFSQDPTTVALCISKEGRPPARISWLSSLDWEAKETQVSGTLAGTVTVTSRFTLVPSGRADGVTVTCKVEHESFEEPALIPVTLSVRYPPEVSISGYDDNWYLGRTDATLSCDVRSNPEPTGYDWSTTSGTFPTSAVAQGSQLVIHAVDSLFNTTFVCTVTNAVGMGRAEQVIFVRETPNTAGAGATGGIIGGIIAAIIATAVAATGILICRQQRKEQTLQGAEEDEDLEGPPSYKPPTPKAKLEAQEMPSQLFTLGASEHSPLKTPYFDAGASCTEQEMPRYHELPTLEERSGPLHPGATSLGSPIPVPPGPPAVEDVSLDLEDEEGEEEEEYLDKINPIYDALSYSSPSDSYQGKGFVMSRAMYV

Effect of a mutation on the interaction, decreasing interaction strength:
MRWCLLLIWAQGLRQAPLASGMMTGTIETTGNISAEKGGSIILQCHLSSTTAQVTQVNWEQQDQLLAICNADLGWHISPSFKDRVAPGPGLGLTLQSLTVNDTGEYFCIYHTAPDGTYTGRIFLEVLESSVAEHGARFQIPLLGAMAATLVVICTAVIVVVALTRKKKALRIHSVEGDLRRKSAGQEEWSPSAPSPPGSCVQAEAAPAGLCGEQRGEDCAELHDYFNVLSYRSLGNCSFFTETG [Y113A]
MRWCLLLIWAQGLRQAPLASGMMTGTIETTGNISAEKGGSIILQCHLSSTTAQVTQVNWEQQDQLLAICNADLGWHISPSFKDRVAPGPGLGLTLQSLTVNDTGEYFCIYHTYADGTYTGRIFLEVLESSVAEHGARFQIPLLGAMAATLVVICTAVIVVVALTRKKKALRIHSVEGDLRRKSAGQEEWSPSAPSPPGSCVQAEAAPAGLCGEQRGEDCAELHDYFNVLSYRSLGNCSFFTETG [P114A]
MRWCLLLIWAQGLRQAPLASGMMTGTIETTGNISAEKGGSIILQCHLSSTTAQVTQVNWEQQDQLLAICNADLGWHISPSFKDRVAPGPGLGLTLQSLTVNDTGEYFCIYHAYPDGTYTGRIFLEVLESSVAEHGARFQIPLLGAMAATLVVICTAVIVVVALTRKKKALRIHSVEGDLRRKSAGQEEWSPSAPSPPGSCVQAEAAPAGLCGEQRGEDCAELHDYFNVLSYRSLGNCSFFTETG [T112A]
